Measurements: US20030069395A1 (DYAX, published 2003)

How the values were obtained:
[1] = target: T1, human serum albumin (HSA) (human, UniProt P02768 25-609); test: fluorescence anisotropy; pH 6.2, no NaCl, no caprylate
T1 construct: also called caprylate-biotinylated-HSA
Protocol: (§1) Affinity determinations were made by first labeling polypeptides on the C-terminal end with NHS-fluorescein. Fluorescence anisotropy measurements were performed in 384-well microplates in a volume of 10 μl in binding buffer using a Tecan Polarion fluorescence polarization plate reader. The concentration of fluorescein labeled peptide was held constant (20 nM), and the concentration of HSA was varied. For pH 6.2, 7.1, and 7.4 binding conditions, a 3 mM phosphate, 0.01% Tween-20 buffer was used. For pH 9.1 binding conditions, a 3 mM sodium bicarbonate buffer, 0.01% Tween-20 nonionic detergent buffer was used. Once NaCl was added to any of these buffers, their pH was adjusted again to achieve the original pH. The binding mixtures were equilibrated for 10 minutes in the microplate at 30° C. prior to performing the measurement. The observed change in anisotropy was fit to the equation below via nonlinear regression to obtain the apparent KD. This equation assumes that the peptide and HSA form a reversible complex with 1:1 stoichiometry.

chicken ovalbumin [2] = target: T2, chicken ovalbumin (Chicken, UniProt P01012 2-386); test: fluorescence anisotropy; PBS, pH 7.4, 0.14 M NaCl; negative control
T2 construct: Negative control; also called Chicken (egg)
T2 sequence (looked up): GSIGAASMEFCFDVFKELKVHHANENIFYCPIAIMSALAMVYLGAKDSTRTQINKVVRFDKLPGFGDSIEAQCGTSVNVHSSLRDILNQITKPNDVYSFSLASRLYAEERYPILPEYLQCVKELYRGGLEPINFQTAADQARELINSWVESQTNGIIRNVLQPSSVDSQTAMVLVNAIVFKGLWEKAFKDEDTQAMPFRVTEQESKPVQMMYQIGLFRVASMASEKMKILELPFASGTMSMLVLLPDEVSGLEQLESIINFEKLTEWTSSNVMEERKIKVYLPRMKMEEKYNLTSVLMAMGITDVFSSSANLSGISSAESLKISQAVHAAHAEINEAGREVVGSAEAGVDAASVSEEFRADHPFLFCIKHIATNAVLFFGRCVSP

[3] = target: T1, human serum albumin (HSA); test: fluorescence anisotropy; pH 6.2, 10 mM NaCl
Protocol: as §1

chicken ovalbumin [4] = target: T2, chicken ovalbumin; test: fluorescence anisotropy; 3 mM phosphate, pH 6.2, 0 M NaCl; negative control
rhesus serum albumin [5] = target: T3, rhesus serum albumin (Rhesus, UniProt Q28522 17-600); test: fluorescence anisotropy; PBS, pH 7.4, 0.14 M NaCl
[6] = target: T4, bovine serum albumin (BSA) (Bovine, UniProt P02769 25-607); test: fluorescence anisotropy; PBS, pH 7.4, 0.14 M NaCl
goat serum albumin (GSA) [7] = target: T5, goat serum albumin (GSA) (Goat); test: fluorescence anisotropy; PBS, pH 7.4, 0.14 M NaCl
T5 sequence (P85295 whole entry, looked up): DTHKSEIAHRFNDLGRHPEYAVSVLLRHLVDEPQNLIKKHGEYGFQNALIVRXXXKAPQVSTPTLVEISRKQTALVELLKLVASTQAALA

pig serum albumin [8] = target: T6, pig serum albumin (Pig, UniProt P08835 25-607); test: fluorescence anisotropy; PBS, pH 7.4, 0.14 M NaCl
[9] = target: T1, human serum albumin (HSA); test: fluorescence anisotropy; PBS, pH 7.4, 0.14 M NaCl
[10] = target: T7, murine serum albumin (MSA) (Mouse, UniProt P07724 25-608); test: fluorescence anisotropy; PBS, pH 7.4, 0.14 M NaCl
T7 construct: also called mouse serum albumin; Mouse

rat serum albumin = rat serum albumin (Rat, UniProt P02770 25-608); test: fluorescence anisotropy; PBS, pH 7.4, 0.14 M NaCl
[11] = target: T1, human serum albumin (HSA); test: fluorescence anisotropy; pH 6.2, 0.14 M NaCl, no caprylate
Protocol: as §1

[12] = target: T1, human serum albumin (HSA); test: fluorescence anisotropy; pH 7.4, 0.14 M NaCl, 0.1% caprylate
Protocol: as §1
Once all the positive phage isolates were sequenced, peptides corresponding to the display peptide were synthesized. A small amount of constant phage sequence surrounding each varied amino acid sequence region was retained and either a -GGGK-NH₂ (SEQ ID NO: 24) amino acid sequence or -X-K-NH₂ C-terminal tail was added to each peptide, where X is 6-aminohexanoic acid and K-NH₂ is an amidated terminal lysine residue. The constant phage sequence was retained because these residues can often play a role in target binding. To determine its affinity for HSA , each peptide was labeled with fluorescein on the C-terminal lysine side chain.

[13] = target: T1, human serum albumin (HSA); test: fluorescence anisotropy; pH 7.4, 0.14 M NaCl, no caprylate
Protocol: as §1

rhesus serum albumin [14] = target: T3, rhesus serum albumin; test: fluorescence anisotropy; 3 mM phosphate, pH 6.2, 0 M NaCl
[15] = target: T4, bovine serum albumin (BSA); test: as above
goat serum albumin (GSA) [16] = target: T5, goat serum albumin (GSA); test: as above
pig serum albumin [17] = target: T6, pig serum albumin; test: as above
[18] = target: T1, human serum albumin (HSA); test: as above
[19] = target: T7, murine serum albumin (MSA); test: as above

T3 sequence (Q28522 17-600 limits assumed): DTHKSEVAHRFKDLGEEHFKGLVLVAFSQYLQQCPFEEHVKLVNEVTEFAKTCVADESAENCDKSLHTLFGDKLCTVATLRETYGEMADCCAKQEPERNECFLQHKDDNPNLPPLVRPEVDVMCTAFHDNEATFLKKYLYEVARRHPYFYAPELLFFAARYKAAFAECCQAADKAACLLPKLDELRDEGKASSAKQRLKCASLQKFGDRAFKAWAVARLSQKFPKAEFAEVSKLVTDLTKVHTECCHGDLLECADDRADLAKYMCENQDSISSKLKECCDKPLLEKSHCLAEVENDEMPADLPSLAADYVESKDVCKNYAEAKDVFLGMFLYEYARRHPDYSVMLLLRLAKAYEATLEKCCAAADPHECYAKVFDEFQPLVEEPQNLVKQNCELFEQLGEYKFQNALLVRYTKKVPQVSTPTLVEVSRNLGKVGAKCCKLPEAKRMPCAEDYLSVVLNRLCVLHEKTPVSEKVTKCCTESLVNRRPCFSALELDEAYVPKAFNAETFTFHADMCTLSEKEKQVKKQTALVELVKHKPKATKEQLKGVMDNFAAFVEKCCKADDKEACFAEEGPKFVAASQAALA
T7 sequence (P07724 25-608 limits assumed): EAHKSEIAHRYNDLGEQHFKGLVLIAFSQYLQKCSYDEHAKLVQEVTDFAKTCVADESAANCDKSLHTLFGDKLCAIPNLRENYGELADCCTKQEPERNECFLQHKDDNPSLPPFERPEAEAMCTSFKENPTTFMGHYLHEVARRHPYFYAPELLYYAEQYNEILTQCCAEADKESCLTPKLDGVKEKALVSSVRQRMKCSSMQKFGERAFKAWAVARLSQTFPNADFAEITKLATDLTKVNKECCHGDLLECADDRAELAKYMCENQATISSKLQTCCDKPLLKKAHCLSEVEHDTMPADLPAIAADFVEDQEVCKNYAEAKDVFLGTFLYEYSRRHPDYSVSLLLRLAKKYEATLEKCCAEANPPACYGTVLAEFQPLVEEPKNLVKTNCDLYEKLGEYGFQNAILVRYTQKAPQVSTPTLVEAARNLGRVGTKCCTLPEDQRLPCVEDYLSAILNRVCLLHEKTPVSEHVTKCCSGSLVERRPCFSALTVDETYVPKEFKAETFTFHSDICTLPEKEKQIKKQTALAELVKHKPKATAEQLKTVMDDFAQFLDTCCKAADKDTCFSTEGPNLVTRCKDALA
T6 sequence (P08835 25-607 limits assumed): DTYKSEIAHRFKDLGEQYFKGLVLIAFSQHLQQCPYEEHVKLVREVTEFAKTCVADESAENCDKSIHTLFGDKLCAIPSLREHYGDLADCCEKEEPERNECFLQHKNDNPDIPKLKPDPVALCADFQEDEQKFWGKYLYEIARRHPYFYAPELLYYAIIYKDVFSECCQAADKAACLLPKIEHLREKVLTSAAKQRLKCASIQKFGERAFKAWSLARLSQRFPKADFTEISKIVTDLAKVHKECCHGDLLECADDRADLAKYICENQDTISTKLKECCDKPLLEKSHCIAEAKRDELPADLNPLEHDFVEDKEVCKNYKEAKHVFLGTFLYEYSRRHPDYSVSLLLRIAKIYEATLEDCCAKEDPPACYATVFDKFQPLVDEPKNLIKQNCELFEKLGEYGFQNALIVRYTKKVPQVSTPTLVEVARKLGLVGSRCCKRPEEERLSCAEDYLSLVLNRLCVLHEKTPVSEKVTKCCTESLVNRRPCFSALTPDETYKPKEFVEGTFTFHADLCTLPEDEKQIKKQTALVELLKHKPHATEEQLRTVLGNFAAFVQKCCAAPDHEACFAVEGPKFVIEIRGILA
T4 sequence (P02769 25-607 limits assumed): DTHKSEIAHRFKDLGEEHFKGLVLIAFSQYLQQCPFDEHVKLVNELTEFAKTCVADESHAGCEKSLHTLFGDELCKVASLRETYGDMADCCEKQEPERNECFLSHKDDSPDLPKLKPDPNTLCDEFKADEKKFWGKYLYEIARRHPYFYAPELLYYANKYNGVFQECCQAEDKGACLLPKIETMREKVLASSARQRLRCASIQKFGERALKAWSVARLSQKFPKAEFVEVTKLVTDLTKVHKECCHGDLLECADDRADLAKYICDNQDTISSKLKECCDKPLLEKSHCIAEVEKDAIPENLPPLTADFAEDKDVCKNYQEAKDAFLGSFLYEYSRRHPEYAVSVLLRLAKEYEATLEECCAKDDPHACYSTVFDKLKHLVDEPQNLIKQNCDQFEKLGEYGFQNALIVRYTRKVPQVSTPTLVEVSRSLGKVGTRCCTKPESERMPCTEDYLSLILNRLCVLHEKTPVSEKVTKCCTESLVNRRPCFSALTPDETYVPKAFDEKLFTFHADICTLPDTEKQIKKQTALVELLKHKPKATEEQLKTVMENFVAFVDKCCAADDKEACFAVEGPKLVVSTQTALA
rat serum albumin, sequence (P02770 25-608 limits assumed): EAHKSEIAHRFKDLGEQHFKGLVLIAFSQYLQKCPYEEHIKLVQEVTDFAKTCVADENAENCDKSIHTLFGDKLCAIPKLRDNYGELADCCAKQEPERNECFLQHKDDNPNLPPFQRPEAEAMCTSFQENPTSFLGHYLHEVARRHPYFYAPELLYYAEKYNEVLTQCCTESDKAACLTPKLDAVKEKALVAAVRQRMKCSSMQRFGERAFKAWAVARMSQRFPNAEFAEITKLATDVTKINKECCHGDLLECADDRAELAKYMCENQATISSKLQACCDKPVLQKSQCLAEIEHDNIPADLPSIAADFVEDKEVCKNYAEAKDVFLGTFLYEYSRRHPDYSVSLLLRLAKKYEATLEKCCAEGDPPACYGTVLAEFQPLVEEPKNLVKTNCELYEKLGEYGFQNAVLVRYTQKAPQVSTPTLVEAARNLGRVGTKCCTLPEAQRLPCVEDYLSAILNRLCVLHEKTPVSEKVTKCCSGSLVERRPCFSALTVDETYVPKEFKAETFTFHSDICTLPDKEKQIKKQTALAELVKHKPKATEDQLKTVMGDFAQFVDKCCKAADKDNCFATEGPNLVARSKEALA

B1: DX-321, Ac-AEGTGDRNMCKFSWIRSPAFCARADPE-X-K-NH2 (peptide)
peptide: AEGTGDRNMCKFSWIRSPAFCARADPEXK
modifications: N-terminal acetyl; X = 6-aminohexanoic acid before the C-terminal Lys; C-terminal amide; C-terminal Lys side chain carries fluorescein (anisotropy) or is coupled to NHS-Sepharose
Kd [1]: 0.9 µM
Kd (chicken ovalbumin [2]): > 200 µM
Kd [3]: ~9 µM
Kd (chicken ovalbumin [4]): > 200 µM
Kd (rhesus serum albumin [5]): 82 µM
Kd [6]: > 200 µM
Kd (goat serum albumin (GSA) [7]): 83 µM
Kd (pig serum albumin [8]): > 200 µM
Kd [9]: 84 µM
Kd [10]: > 200 µM
Kd (rat serum albumin): 117 µM
Kd [11]: 9 µM
Kd [12]: 75 µM
Kd [13]: 84 µM
Kd (rhesus serum albumin [14]): 38 µM
Kd [15]: 21 µM
Kd (goat serum albumin (GSA) [16]): 95 µM
Kd (pig serum albumin [17]): 21 µM
Kd [18]: 0.9 µM
Kd [19]: > 200 µM
